IntAct's records for PubMed 30126976

B1: Colorectal mutant cancer protein (Homo sapiens), P23508 (parent)
chain: MNSGVAMKYGNDSSAELSELHSAALASLKGDIVELNKRLQQTERERDLLEKKLAKAQCEQSHLMREHEDVQERTTLRYEERITELHSVIAELNKKIDRLQGTTIREEDEYSELRSELSQSQHEVNEDSRSMDQDQTSVSIPENQSTMVTADMDNCSDLNSELQRVLTGLENVVCGRKKSSCSLSVAEVDKHIEQLTTASEHCDLAIKTVEEIEGVLGRDLYPNLAEERSRWEKELAGLREENESLTAMLCSKEEELNRTKATMNAIREERDRLRRRVRELQTRLQSVQATGPSSPGRLTSTNRPINPSTGELSTSSSSNDIPIAKIAERVKLSKTRSESSSSDRPVLGSEISSIGVSSSVAEHLAHSLQDCSNIQEIFQTLYSHGSAISESKIREFEVETERLNSRIEHLKSQNDLLTITLEECKSNAERMSMLVGKYESNATALRLALQYSEQCIEAYELLLALAESEQSLILGQFRAAGVGSSPGDQSGDENITQMLKRAHDCRKTAENAAKALLMKLDGSCGGAFAVAGCSVQPWESLSSNSHTSTTSSTASSCDTEFTKEDEQRLKDYIQQLKNDRAAVKLTMLELESIHIDPLSYDVKPRGDSQRLDLENAVLMQELMAMKEEMAELKAQLYLLEKEKKALELKLSTREAQEQAYLVHIEHLKSEVEEQKEQRMRSLSSTSSGSKDKPGKECADAASPALSLAELRTTCSENELAAEFTNAIRREKKLKARVQELVSALERLTKSSEIRHQQSAEFVNDLKRANSNLVAAYEKAKKKHQNKLKKLESQMMAMVERHETQVRMLKQRIALLEEENSRPHTNETSL
B2: Ribosomal protein S6 kinase alpha-2 (Homo sapiens), Q15349 (parent)
chain: MDLSMKKFAVRRFFSVYLRRKSRSKSSSLSRLEEEGVVKEIDISHHVKEGFEKADPSQFELLKVLGQGSYGKVFLVRKVKGSDAGQLYAMKVLKKATLKVRDRVRSKMERDILAEVNHPFIVKLHYAFQTEGKLYLILDFLRGGDLFTRLSKEVMFTEEDVKFYLAELALALDHLHSLGIIYRDLKPENILLDEEGHIKITDFGLSKEAIDHDKRAYSFCGTIEYMAPEVVNRRGHTQSADWWSFGVLMFEMLTGSLPFQGKDRKETMALILKAKLGMPQFLSGEAQSLLRALFKRNPCNRLGAGIDGVEEIKRHPFFVTIDWNTLYRKEIKPPFKPAVGRPEDTFHFDPEFTARTPTDSPGVPPSANAHHLFRGFSFVASSLIQEPSQQDLHKVPVHPIVQQLHGNNIHFTDGYEIKEDIGVGSYSVCKRCVHKATDTEYAVKIIDKSKRDPSEEIEILLRYGQHPNIITLKDVYDDGKFVYLVMELMRGGELLDRILRQRYFSEREASDVLCTITKTMDYLHSQGVVHRDLKPSNILYRDESGSPESIRVCDFGFAKQLRAGNGLLMTPCYTANFVAPEVLKRQGYDAACDIWSLGILLYTMLAGFTPFANGPDDTPEEILARIGSGKYALSGGNWDSISDAAKDVVSKMLHVDPHQRLTAMQVLKHPWVVNREYLSPNQLSRQDVHLVKGAMAATYFALNRTPQAPRLEPVLSSNLAQRRGMKRLTSTRL
B3: Disintegrin and metalloproteinase domain-containing protein 22 (Homo sapiens), Q9P0K1 (parent)
chain: MQAAVAVSVPFLLLCVLGTCPPARCGQAGDASLMELEKRKENRFVERQSIVPLRLIYRSGGEDESRHDALDTRVRGDLGGPQLTHVDQASFQVDAFGTSFILDVVLNHDLLSSEYIERHIEHGGKTVEVKGGEHCYYQGHIRGNPDSFVALSTCHGLHGMFYDGNHTYLIEPEENDTTQEDFHFHSVYKSRLFEFSLDDLPSEFQQVNITPSKFILKPRPKRSKRQLRRYPRNVEEETKYIELMIVNDHLMFKKHRLSVVHTNTYAKSVVNMADLIYKDQLKTRIVLVAMETWATDNKFAISENPLITLREFMKYRRDFIKEKSDAVHLFSGSQFESSRSGAAYIGGICSLLKGGGVNEFGKTDLMAVTLAQSLAHNIGIISDKRKLASGECKCEDTWSGCIMGDTGYYLPKKFTQCNIEEYHDFLNSGGGACLFNKPSKLLDPPECGNGFIETGEECDCGTPAECVLEGAECCKKCTLTQDSQCSDGLCCKKCKFQPMGTVCREAVNDCDIRETCSGNSSQCAPNIHKMDGYSCDGVQGICFGGRCKTRDRQCKYIWGQKVTASDKYCYEKLNIEGTEKGNCGKDKDTWIQCNKRDVLCGYLLCTNIGNIPRLGELDGEITSTLVVQQGRTLNCSGGHVKLEEDVDLGYVEDGTPCGPQMMCLEHRCLPVASFNFSTCLSSKEGTICSGNGVCSNELKCVCNRHWIGSDCNTYFPHNDDAKTGITLSGNGVAGTNIIIGIIAGTILVLALILGITAWGYKNYREQRQLPQGDYVKKPGDGDSFYSDIPPGVSTNSASSSKKRSNGLSHSWSERIPDTKHISDICENGRPRSNSWQGNLGGNKKKIRGKRFRPRSNSTETLSPAKSPSSSTGSIASSRKYPYPMPPLPDEDKKVNRQSARLWETSI
B4: Copine-8 (Homo sapiens), Q86YQ8 (parent)
chain: MDSRYNSTAGIGDLNQLSAAIPATRVEVSVSCRNLLDRDTFSKSDPICVLYVQGVGNKEWREFGRTEVIDNTLNPDFVRKFILDYFFEERENLRFDLYDVDSKSPNLSKHDFLGQVFCTLGEIVGSQGSRLEKPIVGIPGKKCGTIILTAEELNCCRDAVLMQFCANKLDKKDFFGKSDPFLVFYRSNEDGSFTICHKTEVVKNTLNPVWQAFKISVRALCNGDYDRTIKVEVYDWDRDGSHDFIGEFTTSYRELSRGQSQFNVYEVVNPKKKGKKKKYTNSGTVTLLSFLVETEVSFLDYIKGGTQINFTVAIDFTASNGNPAQPTSLHYMNPYQLNAYGMALKAVGEIVQDYDSDKMFPALGFGAKLPPDGRISHEFALNGNPQNPYCDGIEGVMEAYYRSLKSVQLYGPTNFAPVINHVARYASSVKDGSQYFVLLIVTDGVISDMAQTKESIVNASKLPMSIIIVGVGPAEFDAMVELDGDDVRVSSRGKYAERDIVQFVPFRDYIDRSGNHILSMARLAKDVLAEIPEQFLSYMRARGIKPSPAPPPYTPPTHVLQTQI
B5: Plasma membrane calcium-transporting ATPase 2 (Homo sapiens), Q01814 (parent)
chain: MGDMTNSDFYSKNQRNESSHGGEFGCTMEELRSLMELRGTEAVVKIKETYGDTEAICRRLKTSPVEGLPGTAPDLEKRKQIFGQNFIPPKKPKTFLQLVWEALQDVTLIILEIAAIISLGLSFYHPPGEGNEGCATAQGGAEDEGEAEAGWIEGAAILLSVICVVLVTAFNDWSKEKQFRGLQSRIEQEQKFTVVRAGQVVQIPVAEIVVGDIAQVKYGDLLPADGLFIQGNDLKIDESSLTGESDQVRKSVDKDPMLLSGTHVMEGSGRMLVTAVGVNSQTGIIFTLLGAGGEEEEKKDKKGVKKGDGLQLPAADGAAASNAADSANASLVNGKMQDGNVDASQSKAKQQDGAAAMEMQPLKSAEGGDADDRKKASMHKKEKSVLQGKLTKLAVQIGKAGLVMSAITVIILVLYFTVDTFVVNKKPWLPECTPVYVQYFVKFFIIGVTVLVVAVPEGLPLAVTISLAYSVKKMMKDNNLVRHLDACETMGNATAICSDKTGTLTTNRMTVVQAYVGDVHYKEIPDPSSINTKTMELLINAIAINSAYTTKILPPEKEGALPRQVGNKTECGLLGFVLDLKQDYEPVRSQMPEEKLYKVYTFNSVRKSMSTVIKLPDESFRMYSKGASEIVLKKCCKILNGAGEPRVFRPRDRDEMVKKVIEPMACDGLRTICVAYRDFPSSPEPDWDNENDILNELTCICVVGIEDPVRPEVPEAIRKCQRAGITVRMVTGDNINTARAIAIKCGIIHPGEDFLCLEGKEFNRRIRNEKGEIEQERIDKIWPKLRVLARSSPTDKHTLVKGIIDSTHTEQRQVVAVTGDGTNDGPALKKADVGFAMGIAGTDVAKEASDIILTDDNFSSIVKAVMWGRNVYDSISKFLQFQLTVNVVAVIVAFTGACITQDSPLKAVQMLWVNLIMDTFASLALATEPPTETLLLRKPYGRNKPLISRTMMKNILGHAVYQLALIFTLLFVGEKMFQIDSGRNAPLHSPPSEHYTIIFNTFVMMQLFNEINARKIHGERNVFDGIFRNPIFCTIVLGTFAIQIVIVQFGGKPFSCSPLQLDQWMWCIFIGLGELVWGQVIATIPTSRLKFLKEAGRLTQKEEIPEEELNEDVEEIDHAERELRRGQILWFRGLNRIQTQIRVVKAFRSSLYEGLEKPESRTSIHNFMAHPEFRIEDSQPHIPLIDDTDLEEDAALKQNSSPPSSLNKNNSAIDSGINLTTDTSKSATSSSPGSPIHSLETSL

Variants of: B1
Conditions: with scrib_human SCRIB
Target sequence in this assay (Q14160 whole entry): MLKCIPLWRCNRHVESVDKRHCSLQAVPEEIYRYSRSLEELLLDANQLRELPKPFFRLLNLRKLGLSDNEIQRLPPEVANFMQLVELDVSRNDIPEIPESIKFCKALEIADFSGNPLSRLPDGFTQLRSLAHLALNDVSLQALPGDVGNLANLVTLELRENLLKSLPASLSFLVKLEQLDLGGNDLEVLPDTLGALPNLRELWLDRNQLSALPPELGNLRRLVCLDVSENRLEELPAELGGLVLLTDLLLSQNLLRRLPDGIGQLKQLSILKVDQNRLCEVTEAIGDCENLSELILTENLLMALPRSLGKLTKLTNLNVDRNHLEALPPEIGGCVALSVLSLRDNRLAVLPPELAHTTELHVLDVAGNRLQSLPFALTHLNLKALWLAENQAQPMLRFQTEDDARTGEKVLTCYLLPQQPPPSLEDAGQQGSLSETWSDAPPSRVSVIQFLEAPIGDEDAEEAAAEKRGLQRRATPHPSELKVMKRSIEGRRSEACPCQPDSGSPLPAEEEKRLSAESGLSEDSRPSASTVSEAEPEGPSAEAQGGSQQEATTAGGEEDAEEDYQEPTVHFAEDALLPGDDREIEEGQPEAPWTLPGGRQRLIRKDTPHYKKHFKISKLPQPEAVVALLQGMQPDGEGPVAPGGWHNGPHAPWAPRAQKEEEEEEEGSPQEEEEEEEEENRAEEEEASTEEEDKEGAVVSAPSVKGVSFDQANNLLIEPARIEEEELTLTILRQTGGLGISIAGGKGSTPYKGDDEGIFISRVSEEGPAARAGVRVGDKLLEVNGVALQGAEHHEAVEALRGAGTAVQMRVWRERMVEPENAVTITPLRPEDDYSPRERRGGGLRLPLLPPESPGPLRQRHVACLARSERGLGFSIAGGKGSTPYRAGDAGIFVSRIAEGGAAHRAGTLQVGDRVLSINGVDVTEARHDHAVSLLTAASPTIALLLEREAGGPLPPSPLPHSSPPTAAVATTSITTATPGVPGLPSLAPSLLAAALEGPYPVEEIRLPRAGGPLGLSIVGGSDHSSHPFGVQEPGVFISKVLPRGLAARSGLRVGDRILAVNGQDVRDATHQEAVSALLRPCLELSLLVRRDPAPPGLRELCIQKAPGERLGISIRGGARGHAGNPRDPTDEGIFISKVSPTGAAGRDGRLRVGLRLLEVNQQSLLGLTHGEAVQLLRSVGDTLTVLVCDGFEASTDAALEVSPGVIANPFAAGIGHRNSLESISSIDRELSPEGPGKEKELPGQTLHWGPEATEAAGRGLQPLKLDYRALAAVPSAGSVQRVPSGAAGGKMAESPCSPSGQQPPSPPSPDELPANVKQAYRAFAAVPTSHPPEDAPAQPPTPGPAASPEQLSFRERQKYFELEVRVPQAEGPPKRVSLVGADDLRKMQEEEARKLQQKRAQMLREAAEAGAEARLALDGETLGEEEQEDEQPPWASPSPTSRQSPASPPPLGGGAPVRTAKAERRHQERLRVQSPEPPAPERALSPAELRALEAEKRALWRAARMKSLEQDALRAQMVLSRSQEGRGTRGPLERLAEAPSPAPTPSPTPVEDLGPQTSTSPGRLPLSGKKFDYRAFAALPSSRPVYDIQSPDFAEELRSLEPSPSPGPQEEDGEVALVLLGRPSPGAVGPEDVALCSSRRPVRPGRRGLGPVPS

Variant	effect of a mutation on the interaction
S828E	increasing interaction strength

Variants of: B1
Conditions: with shan1_human SHANK1, Q9Y566
Target sequence in this assay (Q9Y566 whole entry): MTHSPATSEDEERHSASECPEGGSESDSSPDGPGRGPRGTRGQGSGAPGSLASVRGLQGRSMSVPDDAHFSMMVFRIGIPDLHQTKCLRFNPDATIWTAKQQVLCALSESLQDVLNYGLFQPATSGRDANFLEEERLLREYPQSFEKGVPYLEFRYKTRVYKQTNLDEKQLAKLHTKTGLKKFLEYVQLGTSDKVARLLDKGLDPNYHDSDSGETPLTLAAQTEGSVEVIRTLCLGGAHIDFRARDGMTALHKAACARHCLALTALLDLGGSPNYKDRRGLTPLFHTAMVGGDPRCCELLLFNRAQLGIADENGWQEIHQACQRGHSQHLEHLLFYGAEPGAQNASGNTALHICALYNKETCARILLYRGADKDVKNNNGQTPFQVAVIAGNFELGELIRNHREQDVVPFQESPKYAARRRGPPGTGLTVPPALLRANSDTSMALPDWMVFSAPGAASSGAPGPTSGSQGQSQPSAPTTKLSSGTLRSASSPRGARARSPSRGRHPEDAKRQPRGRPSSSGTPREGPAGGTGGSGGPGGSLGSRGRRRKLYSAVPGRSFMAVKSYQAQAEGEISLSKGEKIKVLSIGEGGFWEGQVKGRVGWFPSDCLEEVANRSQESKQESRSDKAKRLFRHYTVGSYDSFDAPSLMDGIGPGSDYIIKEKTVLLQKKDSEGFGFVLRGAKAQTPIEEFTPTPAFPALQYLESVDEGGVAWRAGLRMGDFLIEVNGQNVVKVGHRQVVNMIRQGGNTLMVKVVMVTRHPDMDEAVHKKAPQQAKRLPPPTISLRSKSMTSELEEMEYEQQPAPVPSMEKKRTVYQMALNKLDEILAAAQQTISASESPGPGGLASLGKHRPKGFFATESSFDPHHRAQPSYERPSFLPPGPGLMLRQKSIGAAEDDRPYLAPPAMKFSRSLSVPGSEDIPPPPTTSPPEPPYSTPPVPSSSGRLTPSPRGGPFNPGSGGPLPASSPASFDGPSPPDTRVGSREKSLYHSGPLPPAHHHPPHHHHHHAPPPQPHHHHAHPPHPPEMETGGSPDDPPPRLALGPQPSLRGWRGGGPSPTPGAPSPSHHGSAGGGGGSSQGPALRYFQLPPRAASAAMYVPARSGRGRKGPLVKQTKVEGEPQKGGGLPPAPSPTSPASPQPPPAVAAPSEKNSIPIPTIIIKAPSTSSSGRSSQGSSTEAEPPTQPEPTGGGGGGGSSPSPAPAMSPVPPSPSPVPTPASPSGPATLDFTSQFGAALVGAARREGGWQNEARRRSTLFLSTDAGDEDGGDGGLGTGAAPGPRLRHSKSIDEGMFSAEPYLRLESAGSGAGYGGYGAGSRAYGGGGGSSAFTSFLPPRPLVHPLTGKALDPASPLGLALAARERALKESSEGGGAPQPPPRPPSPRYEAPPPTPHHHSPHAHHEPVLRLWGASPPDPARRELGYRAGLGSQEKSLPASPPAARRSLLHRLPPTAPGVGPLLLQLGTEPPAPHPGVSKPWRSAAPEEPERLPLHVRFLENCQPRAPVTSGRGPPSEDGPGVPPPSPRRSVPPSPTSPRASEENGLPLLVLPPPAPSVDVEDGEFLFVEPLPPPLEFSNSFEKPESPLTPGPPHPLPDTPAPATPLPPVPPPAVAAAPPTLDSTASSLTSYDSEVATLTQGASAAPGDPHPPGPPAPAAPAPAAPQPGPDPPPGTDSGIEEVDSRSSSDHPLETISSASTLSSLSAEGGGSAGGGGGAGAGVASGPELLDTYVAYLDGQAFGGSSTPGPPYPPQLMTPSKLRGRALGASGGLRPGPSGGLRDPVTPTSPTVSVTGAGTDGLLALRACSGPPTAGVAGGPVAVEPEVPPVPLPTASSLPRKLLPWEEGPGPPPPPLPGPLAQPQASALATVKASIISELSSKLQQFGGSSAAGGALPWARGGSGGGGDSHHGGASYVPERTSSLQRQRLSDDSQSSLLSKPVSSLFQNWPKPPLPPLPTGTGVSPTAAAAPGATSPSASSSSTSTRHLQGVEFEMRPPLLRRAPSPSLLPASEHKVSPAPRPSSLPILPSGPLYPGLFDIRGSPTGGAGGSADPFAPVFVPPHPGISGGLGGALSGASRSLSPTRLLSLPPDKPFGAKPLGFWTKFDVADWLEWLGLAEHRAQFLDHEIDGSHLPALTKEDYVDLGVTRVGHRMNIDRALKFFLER

Variant	effect of a mutation on the interaction
S828E	decreasing interaction strength

Variants of: B1
Conditions: with dlg1_human DLG1, Q12959
Target sequence in this assay (Q12959 whole entry, looked up): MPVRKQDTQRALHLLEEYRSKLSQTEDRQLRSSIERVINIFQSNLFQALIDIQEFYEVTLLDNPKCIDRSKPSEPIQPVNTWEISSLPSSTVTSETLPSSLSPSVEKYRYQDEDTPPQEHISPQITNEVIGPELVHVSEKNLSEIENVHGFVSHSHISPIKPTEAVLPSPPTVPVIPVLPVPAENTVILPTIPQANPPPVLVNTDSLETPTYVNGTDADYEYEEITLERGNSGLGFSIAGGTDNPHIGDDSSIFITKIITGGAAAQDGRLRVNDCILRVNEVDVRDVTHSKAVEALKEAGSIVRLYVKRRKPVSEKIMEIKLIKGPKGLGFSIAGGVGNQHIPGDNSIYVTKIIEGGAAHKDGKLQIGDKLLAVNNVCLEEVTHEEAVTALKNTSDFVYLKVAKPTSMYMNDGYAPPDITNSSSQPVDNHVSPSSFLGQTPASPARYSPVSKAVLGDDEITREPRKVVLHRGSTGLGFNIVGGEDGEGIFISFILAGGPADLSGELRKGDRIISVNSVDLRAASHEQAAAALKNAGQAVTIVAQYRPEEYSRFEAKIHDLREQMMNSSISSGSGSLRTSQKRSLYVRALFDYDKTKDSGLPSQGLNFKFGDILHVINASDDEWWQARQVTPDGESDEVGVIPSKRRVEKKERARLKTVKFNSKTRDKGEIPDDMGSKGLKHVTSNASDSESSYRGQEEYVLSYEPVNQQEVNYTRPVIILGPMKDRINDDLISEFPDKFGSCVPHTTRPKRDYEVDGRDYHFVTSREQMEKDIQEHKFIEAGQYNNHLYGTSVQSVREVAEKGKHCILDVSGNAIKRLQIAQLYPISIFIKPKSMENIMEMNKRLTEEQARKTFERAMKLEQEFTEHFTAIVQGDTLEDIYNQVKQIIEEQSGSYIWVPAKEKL

Variant	effect of a mutation on the interaction
S828E	decreasing interaction strength

Variants of: B2
Conditions: with dlg1_human DLG1, Q12959
Target sequence in this assay (Q12959 whole entry, looked up): as above

Variant	effect of a mutation on the interaction
S730E	increasing interaction strength

Variants of: B2
Conditions: with scrib_human SCRIB
Target sequence in this assay (Q14160 whole entry): as the sequence (Q14160 whole entry) above

Variant	effect of a mutation on the interaction
S730E	increasing interaction strength

Variants of: B2
Conditions: with shan1_human SHANK1, Q9Y566
Target sequence in this assay (Q9Y566 whole entry): as the sequence (Q9Y566 whole entry) above

Variant	effect of a mutation on the interaction
S730E	decreasing interaction strength

Variants of: B2
Conditions: with scrib_human SCRIB
Remark: another data set of the same source
Target sequence in this assay (Q14160 whole entry): as the sequence (Q14160 whole entry) above

Variant	effect of a mutation on the interaction
S730E	causing an interaction

Variants of: B2
Conditions: with scrib_human SCRIB
Remark: another data set of the same source
Target sequence in this assay (Q14160 whole entry): as above

Variant	effect of a mutation on the interaction
S730A	with no effect

Variants of: B3
Conditions: with scrib_human SCRIB
Target sequence in this assay (Q14160 whole entry): as above

Variant	effect of a mutation on the interaction
S898E	decreasing interaction strength

Variants of: B4
Conditions: with scrib_human SCRIB
Target sequence in this assay (Q14160 whole entry): as above

Variant	effect of a mutation on the interaction
T557E	causing an interaction

Variants of: B5
Conditions: with scrib_human SCRIB

Variant	effect of a mutation on the interaction
S1238E	disrupting interaction strength
S1242E	increasing interaction strength

Variants of: B5
Conditions: with scrib_human SCRIB
Remark: another data set of the same source

Variant	effect of a mutation on the interaction
S1242E	with no effect
